According to the supplement of paper PMC10065799, “High-throughput profiling of sequence recognition by tyrosine kinases and SH2 domains using bacterial peptide display” (eLife, 2023):

Key:
FGFR3 = FGFR3 (UniProt P22607); experiment: phosphorylation enrichment, bacterial display (enrichment ratio); higher = better substrate or ligand; peptides without Tyr show the background
Fyn = Fyn (UniProt P06241); experiment: as above
FGFR1 = FGFR1 (UniProt P11362); experiment: as above
EPHB1 = EPHB1 (UniProt P54762); experiment: as above
EPHB2 = EPHB2 (UniProt P29323); experiment: as above
Sequence of EPHB2 (P29323 whole entry, looked up): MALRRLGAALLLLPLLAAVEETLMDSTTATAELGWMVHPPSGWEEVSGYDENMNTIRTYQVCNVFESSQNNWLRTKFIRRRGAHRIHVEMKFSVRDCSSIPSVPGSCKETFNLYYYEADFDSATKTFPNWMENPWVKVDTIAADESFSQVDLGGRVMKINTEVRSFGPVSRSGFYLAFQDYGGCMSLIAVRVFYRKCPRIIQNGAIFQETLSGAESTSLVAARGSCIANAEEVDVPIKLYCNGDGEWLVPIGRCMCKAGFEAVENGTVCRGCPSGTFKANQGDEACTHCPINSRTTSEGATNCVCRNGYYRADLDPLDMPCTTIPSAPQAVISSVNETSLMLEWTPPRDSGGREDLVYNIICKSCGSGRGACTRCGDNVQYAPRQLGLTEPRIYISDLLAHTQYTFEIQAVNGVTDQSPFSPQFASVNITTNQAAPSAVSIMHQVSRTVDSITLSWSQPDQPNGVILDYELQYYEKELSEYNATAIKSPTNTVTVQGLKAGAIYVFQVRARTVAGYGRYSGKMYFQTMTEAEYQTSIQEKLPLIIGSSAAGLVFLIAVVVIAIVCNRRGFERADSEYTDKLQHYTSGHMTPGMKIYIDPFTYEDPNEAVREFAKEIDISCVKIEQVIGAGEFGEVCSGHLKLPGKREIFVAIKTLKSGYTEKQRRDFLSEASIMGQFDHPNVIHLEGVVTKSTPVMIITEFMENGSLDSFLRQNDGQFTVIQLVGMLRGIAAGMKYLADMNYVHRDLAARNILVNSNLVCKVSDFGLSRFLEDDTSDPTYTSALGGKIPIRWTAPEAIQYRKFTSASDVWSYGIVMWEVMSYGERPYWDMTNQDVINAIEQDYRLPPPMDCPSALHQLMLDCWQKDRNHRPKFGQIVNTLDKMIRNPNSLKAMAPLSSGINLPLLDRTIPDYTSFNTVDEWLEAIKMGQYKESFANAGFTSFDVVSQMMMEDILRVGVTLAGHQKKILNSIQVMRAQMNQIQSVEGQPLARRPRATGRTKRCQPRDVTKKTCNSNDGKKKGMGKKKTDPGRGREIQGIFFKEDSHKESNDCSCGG

Hck = Hck (UniProt P08631); experiment: as above
Sequence of Hck (P08631 whole entry, looked up): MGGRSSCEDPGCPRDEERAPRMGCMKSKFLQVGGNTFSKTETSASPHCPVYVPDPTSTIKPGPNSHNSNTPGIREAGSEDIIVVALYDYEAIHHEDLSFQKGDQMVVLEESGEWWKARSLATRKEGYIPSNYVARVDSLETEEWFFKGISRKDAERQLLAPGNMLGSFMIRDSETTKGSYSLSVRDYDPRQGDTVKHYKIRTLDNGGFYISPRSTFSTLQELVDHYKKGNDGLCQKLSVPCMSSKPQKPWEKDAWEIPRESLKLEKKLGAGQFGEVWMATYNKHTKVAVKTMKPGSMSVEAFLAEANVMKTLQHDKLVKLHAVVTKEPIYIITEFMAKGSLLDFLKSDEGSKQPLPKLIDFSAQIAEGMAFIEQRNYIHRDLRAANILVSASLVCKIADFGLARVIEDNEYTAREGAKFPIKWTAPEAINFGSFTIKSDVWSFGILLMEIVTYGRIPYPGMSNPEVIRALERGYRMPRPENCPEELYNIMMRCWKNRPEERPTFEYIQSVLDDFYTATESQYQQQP

Jak2 = Jak2 (UniProt O60674); experiment: as above
Sequence of Jak2 (O60674 whole entry, looked up): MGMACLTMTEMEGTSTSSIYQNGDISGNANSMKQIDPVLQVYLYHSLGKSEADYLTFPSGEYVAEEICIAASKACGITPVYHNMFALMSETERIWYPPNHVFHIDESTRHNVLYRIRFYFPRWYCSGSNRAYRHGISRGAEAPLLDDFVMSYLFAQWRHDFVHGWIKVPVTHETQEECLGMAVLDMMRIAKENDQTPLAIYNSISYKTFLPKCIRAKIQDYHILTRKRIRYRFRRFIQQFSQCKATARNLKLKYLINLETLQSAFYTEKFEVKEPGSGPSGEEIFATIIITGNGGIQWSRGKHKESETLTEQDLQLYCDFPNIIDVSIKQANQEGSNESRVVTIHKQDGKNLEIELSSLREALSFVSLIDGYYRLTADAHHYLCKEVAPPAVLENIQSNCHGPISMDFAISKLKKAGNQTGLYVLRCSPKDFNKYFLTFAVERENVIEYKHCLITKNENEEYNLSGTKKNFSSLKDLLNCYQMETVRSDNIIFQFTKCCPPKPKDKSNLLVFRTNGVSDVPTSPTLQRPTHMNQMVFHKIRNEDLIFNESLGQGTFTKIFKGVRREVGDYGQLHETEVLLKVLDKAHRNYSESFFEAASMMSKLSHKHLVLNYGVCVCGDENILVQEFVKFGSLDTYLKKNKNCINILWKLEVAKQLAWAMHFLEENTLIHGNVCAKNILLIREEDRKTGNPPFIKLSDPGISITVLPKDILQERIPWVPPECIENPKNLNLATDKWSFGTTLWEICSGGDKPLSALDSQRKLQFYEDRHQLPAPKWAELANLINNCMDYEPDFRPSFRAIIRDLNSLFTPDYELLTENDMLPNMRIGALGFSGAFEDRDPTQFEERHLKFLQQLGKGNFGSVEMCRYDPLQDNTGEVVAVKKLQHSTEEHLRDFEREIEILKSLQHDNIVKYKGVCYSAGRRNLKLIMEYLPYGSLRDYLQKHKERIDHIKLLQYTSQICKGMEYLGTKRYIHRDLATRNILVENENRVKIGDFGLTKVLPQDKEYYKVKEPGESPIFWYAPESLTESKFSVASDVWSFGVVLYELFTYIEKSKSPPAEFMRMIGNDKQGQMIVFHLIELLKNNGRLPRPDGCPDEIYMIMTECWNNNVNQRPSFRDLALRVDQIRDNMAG

c-Abl (mouse) = experiment: as above
AncSZ = experiment: as above
c-Src = experiment: as above
Fes = Fes (UniProt P07332); experiment: as above
Sequence of Fes (P07332 whole entry, looked up): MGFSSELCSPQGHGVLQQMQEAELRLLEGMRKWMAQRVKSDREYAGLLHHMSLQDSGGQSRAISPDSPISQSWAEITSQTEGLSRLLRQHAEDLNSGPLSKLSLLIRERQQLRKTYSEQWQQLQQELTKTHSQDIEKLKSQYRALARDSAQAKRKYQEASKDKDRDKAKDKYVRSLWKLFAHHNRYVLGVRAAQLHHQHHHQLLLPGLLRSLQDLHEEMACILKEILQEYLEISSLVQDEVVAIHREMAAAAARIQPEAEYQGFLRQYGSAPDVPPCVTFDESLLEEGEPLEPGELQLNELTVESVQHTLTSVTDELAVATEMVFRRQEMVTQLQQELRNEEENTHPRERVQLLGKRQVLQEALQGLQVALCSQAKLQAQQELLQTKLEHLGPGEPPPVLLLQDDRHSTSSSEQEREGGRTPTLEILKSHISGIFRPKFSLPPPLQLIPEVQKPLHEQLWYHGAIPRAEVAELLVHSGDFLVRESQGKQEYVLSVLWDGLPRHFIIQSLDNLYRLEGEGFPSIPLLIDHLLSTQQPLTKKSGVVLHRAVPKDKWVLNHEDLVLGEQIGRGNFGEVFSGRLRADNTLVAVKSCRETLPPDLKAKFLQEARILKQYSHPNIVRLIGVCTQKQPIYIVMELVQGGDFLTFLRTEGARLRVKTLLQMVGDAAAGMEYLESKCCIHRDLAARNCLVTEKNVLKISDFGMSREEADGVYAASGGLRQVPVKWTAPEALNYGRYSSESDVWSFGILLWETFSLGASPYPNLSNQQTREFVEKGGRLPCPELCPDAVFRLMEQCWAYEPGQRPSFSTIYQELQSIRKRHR

Fer (mouse) = experiment: as above
MERTK = MERTK (UniProt Q12866); experiment: as above
Sequence of MERTK (Q12866 whole entry, looked up): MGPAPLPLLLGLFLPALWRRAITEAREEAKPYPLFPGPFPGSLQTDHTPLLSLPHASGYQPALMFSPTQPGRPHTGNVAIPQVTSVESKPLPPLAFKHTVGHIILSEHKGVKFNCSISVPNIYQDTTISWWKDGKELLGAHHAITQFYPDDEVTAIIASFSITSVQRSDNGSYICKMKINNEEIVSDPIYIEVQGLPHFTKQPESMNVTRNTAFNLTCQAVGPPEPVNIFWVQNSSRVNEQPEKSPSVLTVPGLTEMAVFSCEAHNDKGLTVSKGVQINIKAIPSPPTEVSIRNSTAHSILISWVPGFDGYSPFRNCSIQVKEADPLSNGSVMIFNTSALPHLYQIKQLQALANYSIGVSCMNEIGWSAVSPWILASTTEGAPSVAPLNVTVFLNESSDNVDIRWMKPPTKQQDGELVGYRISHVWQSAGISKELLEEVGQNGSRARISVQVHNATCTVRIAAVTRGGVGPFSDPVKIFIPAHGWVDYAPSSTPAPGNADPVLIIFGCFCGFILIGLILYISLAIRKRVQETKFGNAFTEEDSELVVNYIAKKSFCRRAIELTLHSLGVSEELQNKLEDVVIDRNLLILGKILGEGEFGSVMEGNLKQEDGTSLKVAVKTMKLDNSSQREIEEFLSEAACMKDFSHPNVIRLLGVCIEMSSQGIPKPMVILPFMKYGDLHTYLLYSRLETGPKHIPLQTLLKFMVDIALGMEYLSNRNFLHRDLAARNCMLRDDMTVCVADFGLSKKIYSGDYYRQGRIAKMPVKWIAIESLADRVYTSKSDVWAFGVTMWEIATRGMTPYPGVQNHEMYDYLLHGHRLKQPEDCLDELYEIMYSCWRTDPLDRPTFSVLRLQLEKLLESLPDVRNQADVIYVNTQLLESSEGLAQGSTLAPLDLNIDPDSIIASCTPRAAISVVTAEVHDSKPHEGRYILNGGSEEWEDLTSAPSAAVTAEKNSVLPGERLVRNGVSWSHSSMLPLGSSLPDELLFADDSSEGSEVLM

c-Src SH2 = experiment: SH2 binding enrichment of the phosphorylated peptide, bacterial display (enrichment ratio); higher = better substrate or ligand; peptides without Tyr show the background
SHP2-C SH2 = experiment: as above
Grb2 SH2 = Grb2 SH2 (UniProt P62993); experiment: as above
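Throughout, for SH2 binding enrichment of the phosphorylated peptide, bacterial display: peptide library displayed on the E. coli surface as eCPX fusions, selected cells deep-sequenced, score is each peptide's frequency after selection divided by its frequency in the input.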
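Throughout, for phosphorylation enrichment, bacterial display: 11-residue human phosphosite peptides and single-mutation variants displayed on the E. coli surface, counted by deep sequencing, each peptide's frequency after selection divided by its frequency in the unselected input library; frequency after pTyr selection over input frequency; kinase dosed for 20-30% of maximal phosphorylation in three min.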

Sequence of Fyn (P06241 whole entry, looked up): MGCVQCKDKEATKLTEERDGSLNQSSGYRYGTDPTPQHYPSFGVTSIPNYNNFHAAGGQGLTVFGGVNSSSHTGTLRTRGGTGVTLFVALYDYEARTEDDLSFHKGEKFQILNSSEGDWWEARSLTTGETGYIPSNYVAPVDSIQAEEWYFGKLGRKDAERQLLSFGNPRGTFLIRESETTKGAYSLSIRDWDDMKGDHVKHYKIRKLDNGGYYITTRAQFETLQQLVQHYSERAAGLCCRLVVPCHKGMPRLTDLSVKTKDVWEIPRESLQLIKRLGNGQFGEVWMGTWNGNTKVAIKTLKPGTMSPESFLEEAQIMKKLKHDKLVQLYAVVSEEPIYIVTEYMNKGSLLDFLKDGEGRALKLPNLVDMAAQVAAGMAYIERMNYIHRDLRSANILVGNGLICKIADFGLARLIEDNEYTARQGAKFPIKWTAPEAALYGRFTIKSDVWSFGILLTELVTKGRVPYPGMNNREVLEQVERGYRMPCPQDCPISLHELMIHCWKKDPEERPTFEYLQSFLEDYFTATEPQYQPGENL

Sequence	SH2 binding enrichment (c-Src SH2)	SH2 binding enrichment (SHP2-C SH2)	SH2 binding enrichment (Grb2 SH2)	phosphorylation enrichment (FGFR3)	phosphorylation enrichment (Fyn)	phosphorylation enrichment (FGFR1)	phosphorylation enrichment (EPHB1)	phosphorylation enrichment (EPHB2)	phosphorylation enrichment (Hck)	phosphorylation enrichment (Jak2)	phosphorylation enrichment (c-Abl (mouse))	phosphorylation enrichment (AncSZ)	phosphorylation enrichment (c-Src)	phosphorylation enrichment (Fes)	phosphorylation enrichment (Fer (mouse))	phosphorylation enrichment (MERTK)
AALKLYHVSDS [VIL1_Y256]	0.434	1.18	0.613	0.672	0.561	0.511	0.493	0.558	0.623	0.635	0.537	0.815	0.417	0.766	0.427	0.847
ADLAKYICENQ [ALB_Y287]	0.607	0.754	0.868	0.788	0.461	0.485	0.672	0.63	0.627	1.09	0.83	0.979	0.505	1.13	0.459	0.386
AEEKEYHAEGG [EGFR_Y869]	0.471	0.748	0.924	0.596	0.536	0.474	0.623	0.593	0.451	0.908	0.653	1.09	0.486	1.05	0.572	0.403

Now from value to sequence, other results behind:

SH2 binding enrichment (c-Src SH2)	SH2 binding enrichment (SHP2-C SH2)	SH2 binding enrichment (Grb2 SH2)	Sequence	phosphorylation enrichment (FGFR3)	phosphorylation enrichment (Fyn)	phosphorylation enrichment (FGFR1)	phosphorylation enrichment (EPHB1)	phosphorylation enrichment (EPHB2)	phosphorylation enrichment (Hck)	phosphorylation enrichment (Jak2)	phosphorylation enrichment (c-Abl (mouse))	phosphorylation enrichment (AncSZ)	phosphorylation enrichment (c-Src)	phosphorylation enrichment (Fes)	phosphorylation enrichment (Fer (mouse))	phosphorylation enrichment (MERTK)
0.434	0.592	0.768	ACEVLYNIAFM [NCF2_Y125]	1.49	1.97	0.976	0.983	0.859	2.45	1.11	2.57	2.01	2.17	1.53	5.68	2.03
1.84	0.656	0.862	ADCRYYAFPQM [GAMT_Y223]	8.74	2.75	11	9.71	10.8	3.1	5.86	7.97	4.46	3.76	1.33	8.45	9.72
2.15	0.649	1.02	ADNQRYAFMPL [TMEM87B_Y460_N456D]	0.641	0.503	0.733	1.07	0.663	0.628	0.673	0.781	0.728	0.452	0.812	0.502	6.67
0.503	0.516	0.739	AEKPKYQISNI [TJP1_Y1602_N1605S]	0.409	0.372	0.358	0.286	0.376	0.41	0.401	0.54	0.896	0.36	0.544	0.377	0.333
0.674	0.785	1.19	AEPDIYQEKLS [USP54_Y1233]	0.623	0.58	0.457	0.531	0.508	0.702	1.01	0.692	0.994	0.568	1.08	0.485	0.405
